Data: patent US20190262327A1, “COMBINATION OF A BACE INHIBITOR AND AN ANTIBODY OR ANTIGEN-BINDING FRAGMENT FOR THE TREATMENT OF A DISORDER ASSOCIATED WITH THE ACCUMULATION OF AMYLOID BETA” (ASTRAZENECA AB, priority 2016, published 2019)
Positions count from the first letter of the chain named.

B1: Abet0373: optimized anti-Aβ1-42 clone derived from Abet0144-GL (protein)
scFv (part 1 of 2): EVQLLESGGGLVQPGGSLRLSCVASGFDFERSVMWWVRQAPGKRLEWVSVIGSGKTNITYADSVKGRFTISRDNSKNTLYLQMNSLRAEDTAVYYCAREWMDHSRPYYYYGMDVWGQGTLVTVSS
scFv (part 2 of 2): SYELTQPPSVSVSPGQTASITCSGHNLEDKFASWYQQKPGQSPVLVIYRDDKRPSEIPERFSASNSGHTATLTISGTQATDEADYYCSSQDTVTRVFGGGTKLTVL
modifications: left off: small tags and cut ends
notes: optimized anti-Aβ1-42 clone derived from Abet0144-GL
B2: Abet0319: optimized anti-Aβ1-42 clone derived from Abet0144-GL (protein)
scFv (part 1 of 2): EVQLLESGGGLVQPGGSLRLSCAASVSVYNKDTMWWVRQAPGKGLEWVSVIGSSGGTTVYADSVKGRFTISRDNSKNTLYLQMNSLRAEDTAVYYCAREWMDHSRPYYYYGMDVWGQGTLVTVSS
scFv (part 2 of 2): B1 scFv (part 2 of 2) with L27I, E28M, F31W, A32V, Q41R, V44A, E56G
modifications: left off: small tags and cut ends
notes: as for B1
B3: Abet0379: optimized anti-Aβ1-42 clone derived from Abet0144-GL (protein)
scFv (part 1 of 2): EVQLLESGGGLVQPGGSLRLSCAASGFDFAETPLWWVRQAPGERLEWVSVIGSNQNKTAYADSVKGRFTISRDNSKDTLYLQMNSLRAEDTAVYYCAREWMDHSRPYYYYGMDVWGQGTLVTVSS
scFv (part 2 of 2): B1 scFv (part 2 of 2) with S1Q, Y2S, E3V, P39S, E56G, E82G, S88A, S89T, T92N, V93F
modifications: left off: small tags and cut ends
notes: as for B1
B4: Abet0383: optimized anti-Aβ1-42 clone derived from Abet0144-GL (protein)
scFv (part 1 of 2): EVQLLESGGGLVQPGGSLKLSCAASGFTFDWYPMWWVRQAPGKRLEWISVIGADNAKIAYADSVKGRFTISRDNSKNTLYLQMNSLRAEDTAVYYCAREWMGHSRPYYYYGMDVWGQGTPVTVSS
scFv (part 2 of 2): B1 scFv (part 2 of 2) with E28G, E56G
modifications: left off: small tags and cut ends
notes: as for B1
B5: Abet0374: optimized anti-Aβ1-42 clone derived from Abet0144-GL (protein)
scFv (part 1 of 2): EVQLLESGGGLVQPGGSLRLSCAASGFQFKDTPMWWVRQAPGKGLEWVSVIGDQNHKKAYADSVKGRFTISRDNSKNTLYLQMNSLRAEDTAVYYCAREWMDHSRPYYYYGMDAWGQGTLVTVSS
scFv (part 2 of 2): B1 scFv (part 2 of 2) with S13T, E28G, D29G, E56G, S66F
modifications: left off: small tags and cut ends
notes: as for B1
B6: Abet0378: optimized anti-Aβ1-42 clone; amber stop codon at VL position 91 read as glutamine (protein)
scFv (part 1 of 2): EVQLLESGGGLVQPGGSLRLSCAASGFPFETDIMWWVRQAPGKGLEWVSVIGTNTDNVAYADSVKGRFTISRDNSKNTLYLQMNSLRAEDTAVYYCAREWMDHSRPYYYYGMDVWGQGTLVTVSS
scFv (part 2 of 2): B1 scFv (part 2 of 2) with E56G
modifications: left off: small tags and cut ends
notes: optimized anti-Aβ1-42 clone; amber stop codon at VL position 91 read as glutamine
B7: Abet0381: optimized anti-Aβ1-42 clone derived from Abet0144-GL (protein)
scFv (part 1 of 2): EVQLLESGGGLVQPGGSLRLSCAASSPSFPRETMWWVRQAPGKGLEWVSVIGTQPNRLTYADSVKGRFTISRDNSKNTLYLQMNSLRAEDTAVYYCAREWMDHSRPYYYYGIDVWGQGTLVTVSP
scFv (part 2 of 2): B1 scFv (part 2 of 2) with V12A, A32V, E56G, D84N, V96A
modifications: left off: small tags and cut ends
notes: as for B1
B8: Abet0321b: optimized anti-Aβ1-42 clone derived from Abet0144-GL (protein)
scFv (part 1 of 2): B2 scFv (part 1 of 2) with V26A, S27Y, V28H, Y29S, K31H, T33P, V59A
scFv (part 2 of 2): B1 scFv (part 2 of 2) with V46I, E56G
modifications: left off: small tags and cut ends
notes: as for B1

Target: T1, human Amyloid beta 1-42 peptide (Homo sapiens, UniProt P05067)
T1 construct: biotinylated human Amyloid beta 1-42 peptide (rpeptide, USA; cat: A1117); purchased rPeptide, USA A1117; host or cells: synthetic peptide
Experiment: Surface Plasmon Resonance kinetic profiling of purified scFv (ProteOn)
Type: binding
Conditions: biotinylated human Amyloid beta 1-42 on streptavidin chip
Source text: Surface Plasmon Resonance was used to analyse the purified scFv clones that had shown significant improvement in binding affinity for human Amyloid beta 1-42 peptide over the parent sequence, Abet0144-GL, in the HTRF™ epitope competition assay (sections 1.3-1.6). Briefly, the ProteOn Protein Interaction Array System (BioRad, USA) was used to assess the kinetic parameters of the interaction between each purified scFv and synthetically produced human Amyloid beta 1-42 peptide. These experiments were performed essentially as described by Karlsson et al. (Karlsson et al., 1991).
The affinity of binding between each test scFv and human Amyloid beta 1-42 was estimated using assays in which biotinylated synthetic human Amyloid beta 1-42 peptide (rPeptide, USA; cat: Al 117) was non-covalently bound via a biotin/streptavidin interaction to a proprietary streptavidin chip (NTA 176-5021) at five different surface densities. The chip surface was regenerated between cycles by a single 60 second injection of 10 mM Glycine pH 2.0 to remove scFv bound to the peptide.
Each scFv at 100-200 nM was sequentially passed over the peptide surface for a sufficient amount of time to observe sensorgrams that could be fitted to an appropriate binding model with confidence. An irrelevant scFv blank was subtracted from the main dataset to reduce the impact of any buffer artefacts or non-specific binding effects. An appropriate binding model was then fitted to the data.

T1 sequence (P05067 672-713): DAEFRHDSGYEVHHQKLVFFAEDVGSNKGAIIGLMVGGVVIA

| Molecule | ka [M⁻¹ s⁻¹] | kd [s⁻¹] |
| --- | --- | --- |
| B1 | 185000 | 8.92e-05 |
| B2 | 329000 | 0.000129 |
| B3 | 134000 | 4.39e-05 |
| B4 | 181000 | 3.94e-05 |
| B5 | 256000 | 6.04e-05 |
| B6 | 136000 | 6.41e-05 |
| B7 | 213000 | 5.14e-05 |
| B8 | 150000 | 3.33e-05 |
